Source: US20230406922A1
Blank lines part the entries; values can stand above or below the substance they belong to.

Columns and labels:
[1] = target: human CD19, full length, on cells (human) (UniProt P15391); test: FACS on Raji cells
[2] = target: murine CD19 protein (murine) (UniProt P25918); test: ELISA, murine CD19 coated
[3] = target: human CD19, full length, on cells (human) (UniProt P15391); test: FACS on CHO-K1-human CD19 cells
[4] = target: monkey CD19, full length, on HEK293T cells (monkey); test: FACS on HEK293T-monkey CD19 cells
[5] = target: human CD19-his protein (human) (UniProt P15391); test: ELISA, human CD19-his coated at 4 ug/mL
[6] = target: cynomolgus monkey CD19 on peripheral blood B cells (cynomolgus monkey (Macaca fascicularis)); test: FACS on cynomolgus monkey PBMC, gated on CD20-positive B cells
[7] = target: human CD19, full length, on cells (human) (UniProt P15391); test: FACS on CHO-K1-human CD19-1C4 cells
[8] = target: human CD19, full length, on cells (human) (UniProt P15391); test: FACS on CHO-K1-human CD19-1C9 cells
[9] = target: human CD19, full length, on cells (human) (UniProt P15391); test: FACS on CHO-K1-human CD19-2C8 cells
[10] = target: human CD19, full length, on cells (human) (UniProt P15391); test: FACS on CHO-K1-human CD19-2G4 cells
[11] = target: human CD19, full length, on cells (human) (UniProt P15391); test: FACS on Raji cells (endogenous CD19)

Sequence of murine CD19 protein (murine) (P25918 19-287 limits assumed): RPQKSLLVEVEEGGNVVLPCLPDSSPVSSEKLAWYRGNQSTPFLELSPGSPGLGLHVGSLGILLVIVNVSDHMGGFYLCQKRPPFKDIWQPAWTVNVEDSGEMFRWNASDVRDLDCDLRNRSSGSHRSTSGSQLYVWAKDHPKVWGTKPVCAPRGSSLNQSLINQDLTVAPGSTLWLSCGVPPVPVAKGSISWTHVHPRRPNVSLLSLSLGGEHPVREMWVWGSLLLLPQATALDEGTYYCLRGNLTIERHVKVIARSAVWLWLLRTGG

maximum mean fluorescence intensity [1]: 382 MFI | OD450 at 0.0001 nM [2]: 0.07 OD450 | OD450 at 0.001 nM [2]: 0.06 OD450 | OD450 at 0.01 nM [2]: 0.06 OD450 | OD450 at 0.10 nM [2]: 0.06 OD450 | OD450 at 1.00 nM [2]: 0.06 OD450 | OD450 at 10.00 nM [2]: 0.08 OD450 | OD450 at 100.00 nM [2]: 0.11 OD450 | maximum mean fluorescence intensity [3]: 102 MFI | maximum mean fluorescence intensity [4]: 165 MFI | OD450 at 0.0001 nM [5]: 0.11 OD450 | OD450 at 0.001 nM [5]: 0.12 OD450 | OD450 at 0.01 nM [5]: 0.11 OD450 | OD450 at 0.10 nM [5]: 0.11 OD450 | OD450 at 1.00 nM [5]: 0.11 OD450 | OD450 at 10.00 nM [5]: 0.12 OD450 | OD450 at 100.00 nM [5]: 0.15 OD450 | proportion of positive cells to B cells (%) at 1 nM [6]: 3% | proportion of positive cells to B cells (%) at 10 nM [6]: 5% | proportion of positive cells to B cells (%) at 100 nM [6]: 11%
Substance: negative control antibody mIgG1 (anti-hel-mIgG1, antibody against hen egg lysozyme)

mean fluorescence intensity of cells [4]: 62 MFI | mean fluorescence intensity of cells [7]: 50 MFI | mean fluorescence intensity of cells [8]: 50 MFI | mean fluorescence intensity of cells [9]: 50 MFI | mean fluorescence intensity of cells [10]: 50 MFI | mean fluorescence intensity of cells [11]: 78 MFI
Substance: IgG subtype control (antibody)
